*1 amine or outer side, *2 acyl side, *3 side chain or, on linkers, in order; H or OH if unused. Side-chain parts run from the residue outwards. [ ]: non-standard residue; d: D form. The star is where a group is joined. C18 diacid = O=C(O)CCCCCCCCCCCCCCCCC(=O)*; γGlu = O=C(O)[C@H](CCC(=O)[*:2])N[*:1]; Pentanoyl = CCCCC(=O)*; AEEA = NCCOCCOCC(=O)O; Aib = CC(C)(N)C(=O)O
T1: CRF1R receptor (UniProt P34998 24-415, limits assumed)
T1 sequence (looked up): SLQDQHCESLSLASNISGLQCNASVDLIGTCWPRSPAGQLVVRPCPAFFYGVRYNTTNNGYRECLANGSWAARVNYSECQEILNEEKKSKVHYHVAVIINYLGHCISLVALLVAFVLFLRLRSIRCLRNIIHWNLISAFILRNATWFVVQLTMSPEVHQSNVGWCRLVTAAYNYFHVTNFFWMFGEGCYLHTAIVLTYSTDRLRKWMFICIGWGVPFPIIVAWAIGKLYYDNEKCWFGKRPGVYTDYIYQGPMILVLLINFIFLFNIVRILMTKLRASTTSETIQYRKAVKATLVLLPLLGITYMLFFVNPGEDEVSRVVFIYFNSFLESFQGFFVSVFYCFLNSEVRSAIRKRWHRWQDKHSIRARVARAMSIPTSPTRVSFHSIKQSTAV


Key:
[1] = target: human corticotropin-releasing factor 2a (CRF2a receptor) (human), Q13324; assay: cell-based or functional assay
Chain of human corticotropin-releasing factor 2a (CRF2a receptor) (human), Q13324 (Q13324 20-411): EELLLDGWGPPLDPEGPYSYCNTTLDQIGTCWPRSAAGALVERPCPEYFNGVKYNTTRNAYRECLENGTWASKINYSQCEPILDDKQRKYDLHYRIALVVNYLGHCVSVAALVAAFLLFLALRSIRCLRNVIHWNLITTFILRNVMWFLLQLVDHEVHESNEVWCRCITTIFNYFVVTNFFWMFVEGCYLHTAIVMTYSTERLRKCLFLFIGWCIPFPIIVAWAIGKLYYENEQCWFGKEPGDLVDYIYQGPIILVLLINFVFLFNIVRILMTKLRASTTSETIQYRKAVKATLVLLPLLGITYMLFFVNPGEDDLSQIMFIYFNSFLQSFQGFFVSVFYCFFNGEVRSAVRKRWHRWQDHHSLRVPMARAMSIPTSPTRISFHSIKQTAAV

[2] = target: T1, CRF1R receptor; assay: cell-based or functional assay

EC50 [nM] (cAMP) [1]	Emax (% I) [2] [%]	Binder
0.43	3	Ac-IVLSLD[dV]PIKLK([AEEA-γGlu-C18 diacid])KILLEQEKQKKQREQAETN[Aib]QILAQV-NH2 (SMILES CC[C@H](C)[C@H](NC(C)=O)C(=O)N[C@H](C(=O)N[C@@H](CC(C)C)C(=O)N[C@@H](CO)C(=O)N[C@@H](CC(C)C)C(=O)N[C@@H](CC(=O)O)C(=O)N[C@@H](C(=O)N1CCC[C@H]1C(=O)N[C@H](C(=O)N[C@@H](CCCCN)C(=O)N[C@@H](CC(C)C)C(=O)N[C@@H](CCCCNC(=O)COCCOCCNC(=O)CC[C@H](NC(=O)CCCCCCCCCCCCCCCCC(=O)O)C(=O)O)C(=O)N[C@@H](CCCCN)C(=O)N[C@H](C(=O)N[C@@H](CC(C)C)C(=O)N[C@@H](CC(C)C)C(=O)N[C@@H](CCC(=O)O)C(=O)N[C@@H](CCC(N)=O)C(=O)N[C@@H](CCC(=O)O)C(=O)N[C@@H](CCCCN)C(=O)N[C@@H](CCC(N)=O)C(=O)N[C@@H](CCCCN)C(=O)N[C@@H](CCCCN)C(=O)N[C@@H](CCC(N)=O)C(=O)N[C@@H](CCCNC(=N)N)C(=O)N[C@@H](CCC(=O)O)C(=O)N[C@@H](CCC(N)=O)C(=O)N[C@@H](C)C(=O)N[C@@H](CCC(=O)O)C(=O)N[C@H](C(=O)N[C@@H](CC(N)=O)C(=O)NC(C)(C)C(=O)N[C@@H](CCC(N)=O)C(=O)N[C@H](C(=O)N[C@@H](CC(C)C)C(=O)N[C@@H](C)C(=O)N[C@@H](CCC(N)=O)C(=O)N[C@H](C(N)=O)C(C)C)[C@@H](C)CC)[C@@H](C)O)[C@@H](C)CC)[C@@H](C)CC)C(C)C)C(C)C) [SEQ ID NO 203]
1.73	8	Pentanoyl-VLSLD[dV]PIKLK([AEEA-AEEA-γGlu-C18 diacid])KILLEQEKQK[Aib]QREQAETN[Aib]QILAQV-NH2 (SMILES CCCCC(=O)N[C@H](C(=O)N[C@@H](CC(C)C)C(=O)N[C@@H](CO)C(=O)N[C@@H](CC(C)C)C(=O)N[C@@H](CC(=O)O)C(=O)N[C@@H](C(=O)N1CCC[C@H]1C(=O)N[C@H](C(=O)N[C@@H](CCCCN)C(=O)N[C@@H](CC(C)C)C(=O)N[C@@H](CCCCNC(=O)COCCOCCNC(=O)COCCOCCNC(=O)CC[C@H](NC(=O)CCCCCCCCCCCCCCCCC(=O)O)C(=O)O)C(=O)N[C@@H](CCCCN)C(=O)N[C@H](C(=O)N[C@@H](CC(C)C)C(=O)N[C@@H](CC(C)C)C(=O)N[C@@H](CCC(=O)O)C(=O)N[C@@H](CCC(N)=O)C(=O)N[C@@H](CCC(=O)O)C(=O)N[C@@H](CCCCN)C(=O)N[C@@H](CCC(N)=O)C(=O)N[C@@H](CCCCN)C(=O)NC(C)(C)C(=O)N[C@@H](CCC(N)=O)C(=O)N[C@@H](CCCNC(=N)N)C(=O)N[C@@H](CCC(=O)O)C(=O)N[C@@H](CCC(N)=O)C(=O)N[C@@H](C)C(=O)N[C@@H](CCC(=O)O)C(=O)N[C@H](C(=O)N[C@@H](CC(N)=O)C(=O)NC(C)(C)C(=O)N[C@@H](CCC(N)=O)C(=O)N[C@H](C(=O)N[C@@H](CC(C)C)C(=O)N[C@@H](C)C(=O)N[C@@H](CCC(N)=O)C(=O)N[C@H](C(N)=O)C(C)C)[C@@H](C)CC)[C@@H](C)O)[C@@H](C)CC)[C@@H](C)CC)C(C)C)C(C)C) [SEQ ID NO 202]

— patent US20260001928A1 (CORTERIA PHARMACEUTICALS, priority 2022, published 2026)
